The values below come from patent publication US20260042850A1.

The assay deals with Insulin. Kind of assay: polyreactivity ELISA on insulin (and dsDNA).
Sequence of Insulin (P01308 25-54, chain 1 of 2): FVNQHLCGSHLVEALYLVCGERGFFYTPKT
Sequence of Insulin (P01308 90-110, chain 2 of 2): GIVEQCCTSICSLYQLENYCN

For the substance Briakinumab analogue (antibody), the reactivity score was above 15. The value for Bococizumab analogue (antibody) was above 15.
